Laboratory results published in publication PMC6192639, “Generation and characterization of monoclonal antibodies that recognize human and murine supervillin protein isoforms” (PLoS ONE, 2018).
Where a chain is given by its changes, count along the chain named. Each block holds one binder with its values, some of them ahead of it.

Columns and labels:
[1] = molecular target: T1, h340 linear peptide IENQRRGQELSATRQ (Homo sapiens); experiment: peptide or protein array; PEPperPRINT microarray of linear 15-residue h340 peptides (overlap 13), hybridoma supernatants diluted 1:10 and 1:1, 16 h at 4 C, anti-mouse IgG DyLight680; conditions: one partner purified
T1 construct: 15-residue peptide of human supervillin h340; numbers count on: hSV1; spot on a peptide microarray; source: printed peptide microarray (PEPperPRINT)
T1 chain: IENQRRGQELSATRQ

[2] = molecular target: T2, h340 linear peptide ELSATRQAHDLSPAA (Homo sapiens); experiment: as above; conditions: one partner purified
T2 construct: 15-residue peptide of human supervillin h340; numbers count on: hSV1; spot on a peptide microarray; source: printed peptide microarray (PEPperPRINT)
T2 chain: ELSATRQAHDLSPAA

[3] = molecular target: T3, endogenous human supervillin splice-form 4 (SV4) (human (endogenous in U2OS)); experiment: immunoblot; cell extracts (HeLa; U2OS with control or SVIL-specific dsRNA; mouse embryonic fibroblasts) on 5-15% SDS gels, nitrocellulose strips probed with hybridoma supernatants diluted 1:500; conditions: partners not purified
T3 construct: also called hSV4; source: endogenous, U2OS lysate

[4] = molecular target: T4, human supervillin N-terminus, first 340 amino acids (h340) (Homo sapiens, UniProt O95425-2); experiment: BLI; Octet RED96e, 30 C, PBS-T; by the methods antibody coupled to AR2G sensors and h340 at about 2, 4, 8 and 16 nM, by the legend of Fig 3 surface-bound h340 and antibody in solution; 2:1 interaction model, global fit; KD as off-rate/on-rate; conditions: both partners purified
T4 construct: supervillin, human, first 340 amino acids of splice-form 1 (SV1); numbers count on: hSV1 (the ~205-kDa splice-form, not archvillin); also called h340 immunogen; h340 antigen; source: E. coli Rosetta2(DE3)pLysS, purified (glutathione-Sepharose 4B), cleaved from GST-h340 with PreScission Protease

[5] = molecular target: T5, Flag-tagged human supervillin splice-form 4 (Flag-hSV4) (Homo sapiens, UniProt O95425-4, strain); experiment: immunostaining of cells or tissue; immunofluorescence, cells fixed with 4% PFA (in CSK buffer, CSK-PFA), Triton X-100; purified antibody 100 ug/ml; overexpressed tagged supervillins in RH30 cells, or endogenous supervillin in U2OS cells on fibronectin; conditions: one partner purified
T5 construct: source: RH30 cells, transfected, fixed

[6] = molecular target: T6, EGFP-tagged human supervillin splice-form 4 (EGFP-hSV4) (Homo sapiens, UniProt O95425-4, strain); experiment: immunostaining of cells or tissue; immunofluorescence, cells fixed with cold methanol; purified antibody 100 ug/ml; overexpressed tagged supervillins in RH30 cells; conditions: one partner purified
T6 construct: source: RH30 cells, transfected, fixed
T6 sequence (O95425 whole entry, looked up, stated change not applied, canonical isoform): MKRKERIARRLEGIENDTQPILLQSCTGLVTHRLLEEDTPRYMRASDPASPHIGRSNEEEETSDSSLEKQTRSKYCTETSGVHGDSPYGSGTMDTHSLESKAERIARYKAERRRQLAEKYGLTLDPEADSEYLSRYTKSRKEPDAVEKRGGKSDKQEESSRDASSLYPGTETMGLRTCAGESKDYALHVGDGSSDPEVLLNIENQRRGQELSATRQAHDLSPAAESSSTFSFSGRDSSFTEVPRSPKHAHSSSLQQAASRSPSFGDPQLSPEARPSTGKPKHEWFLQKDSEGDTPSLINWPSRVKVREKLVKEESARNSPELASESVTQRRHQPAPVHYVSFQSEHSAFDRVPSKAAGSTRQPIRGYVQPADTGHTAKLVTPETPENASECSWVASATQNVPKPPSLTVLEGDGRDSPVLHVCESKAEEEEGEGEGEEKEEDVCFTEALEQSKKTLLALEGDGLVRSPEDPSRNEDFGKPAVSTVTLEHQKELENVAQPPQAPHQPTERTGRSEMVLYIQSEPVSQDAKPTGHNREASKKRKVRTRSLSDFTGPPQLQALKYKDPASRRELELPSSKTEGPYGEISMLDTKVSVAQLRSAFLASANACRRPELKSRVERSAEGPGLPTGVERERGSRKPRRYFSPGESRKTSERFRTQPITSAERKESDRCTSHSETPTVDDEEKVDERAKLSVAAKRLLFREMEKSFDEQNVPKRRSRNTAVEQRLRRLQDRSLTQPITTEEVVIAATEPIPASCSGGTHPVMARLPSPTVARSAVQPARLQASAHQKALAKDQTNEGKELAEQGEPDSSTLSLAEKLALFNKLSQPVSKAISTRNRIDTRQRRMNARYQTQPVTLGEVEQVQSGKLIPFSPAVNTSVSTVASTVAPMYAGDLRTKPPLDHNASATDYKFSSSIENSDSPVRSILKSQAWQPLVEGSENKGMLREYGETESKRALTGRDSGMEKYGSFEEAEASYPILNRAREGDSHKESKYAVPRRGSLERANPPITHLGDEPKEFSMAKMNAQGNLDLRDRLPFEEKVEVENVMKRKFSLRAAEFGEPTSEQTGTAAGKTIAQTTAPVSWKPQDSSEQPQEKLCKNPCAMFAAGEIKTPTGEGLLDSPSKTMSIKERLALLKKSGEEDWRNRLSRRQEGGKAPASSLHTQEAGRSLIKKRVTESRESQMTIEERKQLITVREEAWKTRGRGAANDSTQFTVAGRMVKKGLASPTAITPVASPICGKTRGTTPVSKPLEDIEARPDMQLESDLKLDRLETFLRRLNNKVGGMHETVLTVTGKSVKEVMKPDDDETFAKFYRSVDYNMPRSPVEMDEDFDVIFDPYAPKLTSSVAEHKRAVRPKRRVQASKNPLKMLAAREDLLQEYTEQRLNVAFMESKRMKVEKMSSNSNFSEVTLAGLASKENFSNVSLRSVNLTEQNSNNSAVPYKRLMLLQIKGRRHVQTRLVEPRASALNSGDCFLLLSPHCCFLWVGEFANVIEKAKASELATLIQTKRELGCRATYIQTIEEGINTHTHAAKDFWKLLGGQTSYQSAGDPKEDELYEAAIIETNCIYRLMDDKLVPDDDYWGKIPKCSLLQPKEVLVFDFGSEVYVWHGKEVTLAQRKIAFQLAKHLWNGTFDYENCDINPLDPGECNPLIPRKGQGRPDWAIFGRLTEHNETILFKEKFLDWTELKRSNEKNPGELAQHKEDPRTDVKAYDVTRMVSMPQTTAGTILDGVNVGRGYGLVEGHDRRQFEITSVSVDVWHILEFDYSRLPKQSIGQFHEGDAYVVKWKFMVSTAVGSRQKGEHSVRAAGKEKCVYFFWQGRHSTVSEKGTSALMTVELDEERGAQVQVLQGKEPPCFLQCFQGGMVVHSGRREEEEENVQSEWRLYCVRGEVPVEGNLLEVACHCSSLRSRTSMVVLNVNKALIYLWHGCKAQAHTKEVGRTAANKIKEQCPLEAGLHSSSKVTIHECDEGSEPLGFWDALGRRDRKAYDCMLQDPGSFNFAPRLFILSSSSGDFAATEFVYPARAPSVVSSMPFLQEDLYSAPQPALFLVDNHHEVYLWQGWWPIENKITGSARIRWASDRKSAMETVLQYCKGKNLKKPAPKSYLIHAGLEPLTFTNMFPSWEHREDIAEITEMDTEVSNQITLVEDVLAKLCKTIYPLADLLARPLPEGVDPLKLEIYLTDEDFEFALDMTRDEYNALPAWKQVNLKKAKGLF

T4 sequence (O95425 other isoform, or with tags, fused parts or gaps): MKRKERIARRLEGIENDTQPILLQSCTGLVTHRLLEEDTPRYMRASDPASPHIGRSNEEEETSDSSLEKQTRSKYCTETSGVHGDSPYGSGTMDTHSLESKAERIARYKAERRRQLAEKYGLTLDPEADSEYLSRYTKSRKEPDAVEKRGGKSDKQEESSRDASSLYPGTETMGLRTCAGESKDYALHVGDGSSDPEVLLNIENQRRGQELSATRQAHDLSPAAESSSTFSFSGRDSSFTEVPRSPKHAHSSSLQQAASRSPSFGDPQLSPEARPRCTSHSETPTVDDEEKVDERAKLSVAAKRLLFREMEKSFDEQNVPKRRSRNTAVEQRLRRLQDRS
T5 sequence (O95425 whole entry, looked up, stated change not applied, canonical isoform): as the sequence (O95425 whole entry, looked up, stated change not applied, canonical isoform) above

- binding result [1]: binds
- binding result [2]: binds
- binding result [3]: binds
B1: murine monoclonal antibody clone 2G3 (hybridoma supernatant) (antibody, V domains shown)
VH: QIQLQQSGPELVKPGASVKISCKASAYTFTDYYINWVKQRPGQGLEWIGWIYPGSGNTKYNEKFKGKATLTVDTSSSTAYMQLSSLTSEDSAVYFCATGPFGGFAYWGQGTLVTVSA
VL: DIVMTQAAPSVPVTPGESVSISCRSSKSLLHSNGNTYLYWFLQRPGQSPQLLIYRMSNLASGVPDRFSGSGSGTAFALRISRVEAEDVGVYYCMQHLEYPLTFDAGTRLELK
notes: HC variable region of clone 2G3, partial CDS; mouse IgG1 heavy chain constant region (isotype IgG1 by isotyping kit); LC variable region of clone 2G3, partial CDS; mouse light chain constant region; mouse IgG1; Group 1; source: mouse hybridoma supernatant (Precision Antibody, Inc.)

- Kd [4]: 4.21 nM
- koff [4]: 0.000496 s⁻¹
- kon [4]: 118000 M⁻¹ s⁻¹
- binding result [5]: binds
B2: chimeric (rabbit Fc) monoclonal antibody 1E2 (CPTC-SVIL-1) (antibody, V domains shown)
VH: B1 VH with E10D, A26G, Y60F, K63R, G66D, T98S, Y106H
VL: B1 VL with H31Y, A77T, R79K, D104G, R108K
notes: HC variable region of clone 1E2 (as the heavy chain variable region of m4), partial CDS; LC variable region of clone 1E2 (as the light chain variable region of m4), partial CDS; mouse variable regions on rabbit IgG and rabbit kappa constant regions; Group 1; also called Rb 1E2; chimeric rabbit 1E2; source: HEK293, transient production, purified (protein A)

- binding result [6]: binds
- Kd [4]: 0.73 nM
- koff [4]: 0.000296 s⁻¹
- kon [4]: 407000 M⁻¹ s⁻¹
B3: chimeric (rabbit Fc) monoclonal antibody 4A8 (CPTC-SVIL-2) (antibody, V domains shown)
VH: EVQLQQSGAELVRPGASVKLSCTASGFNIKDDHMHWVKQRPEQGLEWIGWIDPENGDTEYASKFQDKATITADTSSNTAYLQFSSLTSEDTAVYYCTTGEFDNWGQGTTLTVSS
VL: B1 VL with V11I, E17Q, G73A, A77T, L101F, T102S, D104G, R108K
notes: HC variable region of clone 4A8 (as the heavy chain variable region of m7), partial CDS; LC variable region of clone 4A8 (as the light chain variable region of m7), partial CDS; mouse variable regions on rabbit IgG and rabbit kappa constant regions; Group 2; also called Rb 4A8; chimeric rabbit 4A8; source: HEK293, transient production, purified (protein A)
